Among the data in PMC8660890 are stoichiometry N values, retold here.

The target in this experiment is recombinant β subunit of human MUC4 mucin (rMUC4β) (human). Description: native gel or EMSA; Blue Native PAGE of purified rMUC4β following thermal denaturation, non-reducing conditions; western blot with anti-His tag mAb. A general note: A gel shift assay detects complexes by their altered migration in electrophoresis.

The term stoichiometry N denotes the number of molecules, sites or subunits per partner or assembly.

Regarding “recombinant β subunit of human MUC4 mucin (rMUC4β) (domain or fragment)”, the stoichiometry N was found to be 2.
